Data published in the supplement of paper PMC10567573.
± gives the standard deviation.

Experiment: protein stability index of a GFP-peptide fusion (GPS, HEK-293T) (PSI 1-6); higher = more stable
[1] = treatment: DMSO, c terminus: a fixed tail appended
[2] = treatment: MLN4924 1 uM, 8 h, c terminus: a fixed tail appended
[3] = treatment: DMSO, c terminus: native
[4] = treatment: MLN4924 1 uM, 8 h, c terminus: native
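Also: 24-mer peptide tiles fused after GFP, lentivirally expressed, FACS-sorted into six equal bins by GFP/DsRed ratio, decoded by Illumina sequencing, PSI is the read-weighted mean bin number.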

Sequence	protein stability index [1]	protein stability index [2]	protein stability index [3]	protein stability index [4]
AKVNYVKNNICFMSHHQEELVPKQ [SLC2A12]	3 ± 0.41	3.16 ± 0.41		
QLLADEKMKQLTEETEVLAHEIER [TRIM35]	5.09 ± 0.46	5.21 ± 0.21		
SSHEVKALGAMWKLHKSQLSQALN [TRIM9]	2.7 ± 0.41	2.58 ± 0.27		
HTPQSSVKTSVPSSKSSGDLVDLF [CLINT1]	4.03 ± 0.16	4.26 ± 0.053		
IDLLTFLTGQKAVKVHGLLKTFVK [GFOD1]	2.93 ± 0.62	2.67 ± 0.31		
SGYAGELGFRAFSGSGNRLDGKKK [UFD1]	4.89 ± 0.069	4.74 ± 0.26		
SDEDDEEERRRRVFDVPIRRRRCS [FBXO3]	5.41 ± 0.32	5.42 ± 0.27		
GVKLEGKVPMHKLFLEMLEAMMD [ESRRA]			2.58 ± 0.74	2.66 ± 0.69
NKKRGWRRLAQEPLGLEVDQFLED [NOP53]	4.45 ± 0.35	4.34 ± 0.18		
YAVEASTMAQHAEVLVKSNNLTDR [CARM1]	4.16 ± 0.14	4.64 ± 0.34		
QADLLAHLVPEPDRLEEQLPWLSL [DNAAF3]	2.34 ± 0.25	2.48 ± 0.28		
CQECGKTFRVSSDLIKHQRIHTEE [ZNF75A]	5.26 ± 0.4	5.41 ± 0.31		
CSKQSGSFRKFRYGYNNVVTIPAG [ADAMTS4]	2.3 ± 0.44	2.23 ± 0.35		
QGLIGSVEEQLAQLRCEMEQQNQE [KRT17]	5.3 ± 0.36	5.29 ± 0.34		
ISSIKEKYPSHSFIGEESVAAGEK [IMPA1]	4.8 ± 0.13	4.81 ± 0.23		
HQLVMEGYNWCHDRNVVTIFSAPN [PPP2CA]	2.51 ± 0.14	2.49 ± 0.18		
CMFCNEEFLGNRSVILNHMAREHA [ZNF277]	3.62 ± 0.38	3.52 ± 0.46		
ESALIALDSEKPKKLRFHPKQLYF [EHMT1]	2.38 ± 0.48	2.54 ± 0.19		
GGTLAEFIQKRCNSLLEEETILHF [NEK8]	1.97 ± 0.24	1.99 ± 0.43		
HTSVVCYLLDYPNNLLSAPPPDVT [ANKRD17]	2.46 ± 0.39	2.26 ± 0.44		
LVEETSCQQNMIQELIETNQQLRN [CEP70]	4.3 ± 0.24	4.41 ± 0.3		
QELSEVLELLSAPELKSLAKTFHL [FAN1]	2.26 ± 0.46	2.25 ± 0.14		
QEQLSLSQRQAKELKLEQQEAAER [LRRC45]	5.5 ± 0.19	5.67 ± 0.22		

Sequence	protein stability index [1]	protein stability index [2]	protein stability index [3]	protein stability index [4]
ARLQDFQELELVLMISENNFLFRN [ANKRD40]	2.97 ± 0.63	2.66 ± 0.58		
MEAPGLAQAAAAESDSRKVAEETP [PRKX]	5.56 ± 0.38	5.54 ± 0.31		
ALIETSYVKVLHHMVKISGGPRIS [MAGEA6]	2.93 ± 0.41	2.88 ± 0.51		
VSNFLKERTGFSIRPVAGYLSPRD [TPH1]	2.71 ± 0.33	2.95 ± 0.31		
VAREYYSEADASHCIQQILESVNH [CAMK2D]	3.46 ± 0.17	3.37 ± 0.3		
SVLVILISIVIFCLETLPEFRDDR [KCNA4]	2.99 ± 0.29	2.96 ± 0.5		
LLKYRAREPVTKAEMLGSVVGNWQ [MAGEA3]	2.39 ± 0.2	2.51 ± 0.28		
TVVEEPVDITPYLDQLDESLRDKV [INTS3]	5.12 ± 0.16	5.03 ± 0.33		
AMFAADPKKPIGGNIIAHASTTRL [RAD51]	3.32 ± 0.087	3.39 ± 0.12		
LAHAFQPGPGIGGDAHFDEDERWT [MMP1]	4.73 ± 0.14	4.53 ± 0.21		
VCSSNKPAIVEAGGMQALGLHLTD [CTNNB1]	4.04 ± 0.087	3.89 ± 0.16		
DLESQVESLREELICLKKNHEEEV [KRT34]	4.86 ± 0.24	5.13 ± 0.16		
PLVTPPQSPVSPQPPAITQVHRQG [SMTNL2]	4.56 ± 0.35	4.58 ± 0.053		
LDQLLDMPAAGLAVQLRHAWNPED [SPSB4]	3.44 ± 0.28	3.68 ± 0.16		
SHCSQLTTLSFYGNSISISALQSL [PRAME]	2.87 ± 0.72	2.78 ± 0.58		
HMILENCSISKMEEEAGQTSIEPS [ZER1]	5.14 ± 0.13	5.2 ± 0.18		
DSSNPYPNFNFNISHQGDYAVLAA [AASDHPPT]	3.24 ± 0.36	3.42 ± 0.41		
HHHLHKTLREITDQEHNVAALKQA [TEKT4]	4.35 ± 0.13	4.52 ± 0.11		
AYGNRTECRNPQELESIRQDRDAL [FEM1B]	4.71 ± 0.24	4.68 ± 0.16		
TMSIPVAMETDGPLFEDVQMLRKT [PPP2R5C]	4.22 ± 0.12	4.3 ± 0.1		
SDGRQDSPAGELPKTVQQPTESEP [MATN2]	5.51 ± 0.24	5.57 ± 0.35		
GHMDDGGYSMNFNMSSSRGPLPVK [RBMX]	4.05 ± 0.21	3.95 ± 0.24		
GNTIALFFRSLLPNYTMEGERPEE [TCF25]	2.17 ± 0.62	2.72 ± 0.21		

Sequence	protein stability index [1]	protein stability index [2]	protein stability index [3]	protein stability index [4]
AEPSRFSSSDSDFDDEEPRKFYVH [FCHO1]	4.87 ± 0.18	4.87 ± 0.13		
QTLSPDMQGAYCTFPASVLAPVPT [DUSP5]	3.51 ± 0.32	3.51 ± 0.21		
ISLDVLQPSFPEILLESHMVMIRG [POMT2]	2.34 ± 0.39	2.41 ± 0.71		
TEIAEQEGNQKGEQATSLAILRVI [KCNA1]	3.75 ± 0.41	3.56 ± 0.2		
PPVSQSRSLFSSVPSKPPMSLEPQ [ANKRD40]	4.53 ± 0.11	4.68 ± 0.4		
SHPDTSYYIRYRGAVYADSGNFER [FEM1A]	2.88 ± 0.38	2.83 ± 0.28		
HTGDKPYKCAECGKSFCHSTHLTV [ZNF8]	3.8 ± 0.12	3.85 ± 0.36		
TTPLQLAIIRERSSCVKILLDHNA [ASB7]	2.26 ± 0.16	2.34 ± 0.22		
AVINDIANLPVPTIAAIDGLALGG [AUH]	2.79 ± 0.21	2.62 ± 0.23		
PSHLLLPPDTVSRTGLEKAAAGAV [SPDEF]	4.22 ± 0.33	4.26 ± 0.35		
YVFYLAVGNYRLKEYEKALKYVRG [FIS1]	2.79 ± 0.36	2.39 ± 0.58		
ELDYLMDVLVGTQALERPPGPGR [SERTAD1]			2.23 ± 0.26	2.67 ± 0.58
NELVKCIEELCQKREELCRQIQEE [SSNA1]	3.62 ± 0.33	3.76 ± 0.26		
AQKALDLPSSGEGLAFFTFPNIAS [HMOX1]	2.88 ± 0.2	2.96 ± 0.25		
MAAAEPSPRRVGFVGAGRMAGAIA [PYCR3]	2.97 ± 0.079	3.38 ± 0.073		
EDWVLLGMANGQQWLQSTSGSQRH [TLE6]	3.41 ± 0.5	3.2 ± 0.4		
VQLAQQQAALQKQQEVVVAGSSLP [ACBD3]	4.12 ± 0.11	4.49 ± 0.26		
TASSISSSGGSSGSSSDNRTYRYS [DYRK1B]	4.62 ± 0.051	4.67 ± 0.15		
QRCQKCSWSQYEMPEFSSDSTMRI [RTP4]	2.36 ± 0.18	2.42 ± 0.16		
DFCKVFLISGVTLDNCVEVGRIAN [KLHL13]	2.47 ± 1.2	2.12 ± 0.47		
TRQLSLAVKDGLIVETLTVGCKGS [ZMYND11]	3.17 ± 0.15	3.49 ± 0.26		
LPTLSHIQEAQSAWKDDFALNSML [YJU2B]	3.13 ± 0.3	3.04 ± 0.23		
TLQPPEFLYSHGVPRTLSPHQYHS [TBX5]	2.83 ± 0.14	3.06 ± 0.12		

Sequence	protein stability index [1]	protein stability index [2]	protein stability index [3]	protein stability index [4]
HMGTNVIVANTMPTHLSNGQMSTP [HNF4A]	3.6 ± 0.18	3.66 ± 0.33		
TGYLSTMVGLILGPFGINHGIELH [PCMTD1]	3.29 ± 0.44	3.35 ± 0.25		
SCTVTTVQPMDRLPYQHFSAHFTS [TBX5]	2.23 ± 0.15	2.31 ± 0.17		
GWLSVSDDLTSVTNHGYRVQVENP [TRIM35]	3.12 ± 0.17	3.24 ± 0.18		
IRVQGREFRAHRAVLAASSPYFHD [ZBTB22]	2.55 ± 0.21	2.41 ± 0.16		
PENLLLASKSKGAAVKLADFGLAI [CAMK2D]	2.53 ± 0.38	2.13 ± 0.18		
CAERLQSEEQVSKNLFGPPLESAF [FCHO1]	3.36 ± 1.1	3.58 ± 0.52		
LPGPTRPVLGRRAVGGRLRLVPGG [HAGHL]	3.53 ± 0.41	3.67 ± 0.23		
ARRELQAEREALQARLRDVSRREG [ZBED3]	4.79 ± 0.15	4.8 ± 0.18		
SKLKMLERKGWLAPSPGVKEQAIW [PKD2L1]	2.26 ± 0.35	2.54 ± 0.3		
FPESETKECPFRVNKVCGAACSSK [SERPINB5]	2.8 ± 0.56	3.55 ± 0.66		
LGPQVSLDPMKNVTCENGLPAVVS [LOXL2]	4.3 ± 0.97	4.12 ± 0.25		
LPPALVPAGGLAPGGGRGALLDQI [WAS]	3.69 ± 0.12	3.71 ± 0.25		
TLVQREEPLRILSKYHRFISFTLY [CDS2]	2.95 ± 0.8	2.8 ± 0.86		
KGKDNKHPMYRRLVHSAVDVPTIQ [ZMYND11]	3.71 ± 0.18	3.71 ± 0.28		
CVADNTNLYVFGGYNPDYDESGGP [KLHDC10]	3.26 ± 0.14	3.18 ± 0.34		
LRHDEVRTYFHEFGHVMHQICAQV [NLN]	2.31 ± 0.12	2.22 ± 0.26		
TAFNFFKMAVSRHLTRGRKMAHVI [BRF1]	2.66 ± 0.61	2.33 ± 0.36		
LKGSRVSILFGHENRVSTLRVSPD [GNB5]	2.96 ± 0.15	3.02 ± 0.29		
RASRTYELQNQLAACTRALESSEE [FSD1]	5.01 ± 0.2	4.92 ± 0.26		
